Target: T1, yeast general transcription factor TFIIB (yeast, UniProt P29055 1-345)
T1 sequence (looked up): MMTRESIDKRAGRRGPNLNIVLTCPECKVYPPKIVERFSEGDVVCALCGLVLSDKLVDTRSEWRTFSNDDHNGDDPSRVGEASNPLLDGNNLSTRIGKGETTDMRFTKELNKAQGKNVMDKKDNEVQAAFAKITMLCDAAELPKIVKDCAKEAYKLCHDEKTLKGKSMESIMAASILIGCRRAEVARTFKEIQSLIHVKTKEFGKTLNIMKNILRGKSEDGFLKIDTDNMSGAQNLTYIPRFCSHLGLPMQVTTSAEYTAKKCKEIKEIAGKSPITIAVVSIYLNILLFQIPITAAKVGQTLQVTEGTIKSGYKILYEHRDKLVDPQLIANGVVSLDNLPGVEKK
Experiment: native gel or EMSA

binding result: binds
B1: yeast TATA-binding protein (TBP) (natural protein, UniProt P13393 1-240, looked up)
chain: MADEERLKEFKEANKIVFDPNTRQVWENQNRDGTKPATTFQSEEDIKRAAPESEKDTSATSGIVPTLQNIVATVTLGCRLDLKTVALHARNAEYNPKRFAAVIMRIREPKTTALIFASGKMVVTGAKSEDDSKLASRKYARIIQKIGFAAKFTDFKIQNIVGSCDVKFPIRLEGLAFSHGTFSSYEPELFPGLIYRMVKPKIVLLIFVSGKIVLTGAKQREEIYQAFEAIYPVLSEFRKM
